Data on 2 molecules can be found in patent US20030176373, “Agents that modulate DNA-PK activity and methods of use thereof” (published 2003).

In data set [1] the target is T1, Ku70/Ku80 heterodimer (Ku antigen) (Mus musculus, UniProt P23475;P27641 P23475:2-608,P27641:1-732). In words: competition; unlabeled 0.1-0.4 ug displaces labeled ds-ISS-ODN. The procedure:
(§1) To verify the binding specificity of the Ku protein to ISS-ODN, inhibition studies were performed using cold ss or ds ISS or mutated (M, i.e., control) ODNs. Ten μg of fraction 20 from the affinity column were incubated with [³²P]-labeled ISS-ODN in the presence of unlabeled (0.1, 0.2 and 0.4 μg, respectively) ss-ISS-ODN (lanes 3-5), ds-ISS-ODN (lanes 7-9), ss-M-ODN (lanes 11-13) or ds-M-ODN (lanes 15-17).

Data set [2] concerns the target T1, Ku70/Ku80 heterodimer (Ku antigen). As to the kind of experiment: competition; no significant competition at 0.1-0.4 ug. The procedure: as §1

T1 sequence (P23475 2-608, chain 1 of 2): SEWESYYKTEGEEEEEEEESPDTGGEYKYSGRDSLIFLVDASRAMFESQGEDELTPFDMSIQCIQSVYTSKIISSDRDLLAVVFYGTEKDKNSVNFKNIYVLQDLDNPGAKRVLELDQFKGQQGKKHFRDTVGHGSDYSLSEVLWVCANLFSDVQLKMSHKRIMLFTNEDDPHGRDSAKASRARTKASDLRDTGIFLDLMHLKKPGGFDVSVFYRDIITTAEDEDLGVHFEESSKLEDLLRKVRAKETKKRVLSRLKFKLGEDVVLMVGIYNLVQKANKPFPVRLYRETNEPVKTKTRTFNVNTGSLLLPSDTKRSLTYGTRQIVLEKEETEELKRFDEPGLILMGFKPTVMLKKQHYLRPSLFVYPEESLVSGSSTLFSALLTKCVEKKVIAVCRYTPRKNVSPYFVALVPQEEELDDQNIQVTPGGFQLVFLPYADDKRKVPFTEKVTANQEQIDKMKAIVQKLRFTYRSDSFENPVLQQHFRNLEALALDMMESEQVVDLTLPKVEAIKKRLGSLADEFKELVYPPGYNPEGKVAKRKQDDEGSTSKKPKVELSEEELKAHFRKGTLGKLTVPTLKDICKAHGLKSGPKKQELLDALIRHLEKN
T1 sequence (P27641 whole entry, chain 2 of 2): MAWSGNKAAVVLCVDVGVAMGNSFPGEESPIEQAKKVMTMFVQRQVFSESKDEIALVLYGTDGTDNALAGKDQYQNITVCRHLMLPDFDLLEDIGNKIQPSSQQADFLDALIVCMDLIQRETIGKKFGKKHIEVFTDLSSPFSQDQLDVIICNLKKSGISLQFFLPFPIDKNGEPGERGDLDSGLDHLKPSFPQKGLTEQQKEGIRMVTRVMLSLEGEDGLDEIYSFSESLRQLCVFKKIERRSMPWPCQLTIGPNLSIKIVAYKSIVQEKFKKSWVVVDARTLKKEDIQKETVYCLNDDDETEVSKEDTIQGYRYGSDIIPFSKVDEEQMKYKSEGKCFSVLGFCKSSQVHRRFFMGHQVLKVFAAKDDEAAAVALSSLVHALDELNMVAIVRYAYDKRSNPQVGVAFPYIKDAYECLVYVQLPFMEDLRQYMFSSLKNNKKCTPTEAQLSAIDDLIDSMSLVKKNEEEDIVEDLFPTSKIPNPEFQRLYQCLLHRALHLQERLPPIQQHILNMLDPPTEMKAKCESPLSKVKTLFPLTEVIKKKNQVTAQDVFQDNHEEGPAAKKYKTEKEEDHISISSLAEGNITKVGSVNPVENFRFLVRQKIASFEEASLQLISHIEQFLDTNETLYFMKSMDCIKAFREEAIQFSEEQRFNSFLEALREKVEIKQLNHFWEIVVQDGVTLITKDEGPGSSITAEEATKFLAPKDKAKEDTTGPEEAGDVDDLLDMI

B1: ss-ISS-ODN (ssDNA)
DNA: TGACTGTGAACGTTCGAGATGA
For the molecule B1, the binding result in data set [1] was “binds”.

B2: ss-M-ODN (ssDNA)
DNA: TGACTGTGAACCTTAGAGATGA
As to B2, in data set [2], the binding result is given as “no binding”.
